pKd data for 5 molecules are collected here from PMC9482650, “Quantitative fragmentomics allow affinity mapping of interactomes” (Nature Communications, 2022).

For orientation: pKd means the negative decadic logarithm of the Kd, by convention in mol/L.

Experiment in all cases: holdup assay
What all share (design): key: below the threshold = too weak to quantify, mostly under pKd 3.1 to 4
Common to all, as to conditions: plain residues with an end cap or a label only (N-terminal biotin on a linker: ado-ado)

The target in assay [1] is T1, DLG3_2, Q92796.
T1 sequence (Q92796 221-321, limits assumed, looked up): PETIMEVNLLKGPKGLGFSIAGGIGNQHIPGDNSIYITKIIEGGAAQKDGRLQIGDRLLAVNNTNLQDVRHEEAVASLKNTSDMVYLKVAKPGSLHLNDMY

Assay [2] addresses T2, LNX2_3, Q8N448.
T2 sequence (Q8N448 463-564, limits assumed, looked up): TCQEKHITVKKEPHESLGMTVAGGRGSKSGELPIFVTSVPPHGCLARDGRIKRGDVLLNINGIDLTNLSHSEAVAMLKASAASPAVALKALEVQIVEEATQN

The target of assay [3] is PDLIM1, O00151.
Assay [4] has as its target DLG4_2, P78352.
The target of assay [5] is DLG1_2, Q12959.
Assay [6] has as its target T3, SNTB1, Q13884.
T3 sequence (Q13884 107-205, limits assumed, looked up): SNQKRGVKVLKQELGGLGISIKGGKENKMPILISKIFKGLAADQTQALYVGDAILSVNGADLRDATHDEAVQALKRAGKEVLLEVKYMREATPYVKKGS

The target of assay [7] is T4, MPP6, Q9NZW5.
T4 sequence (Q9NZW5 125-219, limits assumed, looked up): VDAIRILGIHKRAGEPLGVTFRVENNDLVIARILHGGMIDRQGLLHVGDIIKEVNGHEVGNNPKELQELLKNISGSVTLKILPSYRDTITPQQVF

The target of assay [8] is Inadl_5, Q8NI35.
Assay [9] has as its target T5, NHERF3_1, Q5T2W1.
T5 sequence (Q5T2W1 4-100, limits assumed, looked up): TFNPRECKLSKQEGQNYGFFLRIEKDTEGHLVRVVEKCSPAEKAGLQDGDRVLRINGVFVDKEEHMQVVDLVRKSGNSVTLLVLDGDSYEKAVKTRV

The target of assay [10] is Inadl_3, Q8NI35.
Assay [11] deals with T6, TIAM2, Q8IVF5.
T6 sequence (Q8IVF5 885-986, limits assumed, looked up): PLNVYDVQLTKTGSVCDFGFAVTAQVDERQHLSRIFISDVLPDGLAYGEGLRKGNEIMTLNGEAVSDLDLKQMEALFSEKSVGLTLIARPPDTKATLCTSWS

The target in assay [12] is LIMK2, P53671.
The target of assay [13] is FRMPD2_3, Q68DX3.
The target in assay [14] is TJP1_3, Q07157.
Assay [15] has as its target T7, RAPGEF6, Q8TEU7.
T7 sequence (Q8TEU7 525-625, limits assumed, looked up): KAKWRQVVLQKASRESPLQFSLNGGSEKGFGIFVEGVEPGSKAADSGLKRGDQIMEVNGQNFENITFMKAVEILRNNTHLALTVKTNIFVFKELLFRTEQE

Assay [16] concerns the target T8, RADIL, Q96JH8.
T8 sequence (Q96JH8 971-1071, limits assumed, looked up): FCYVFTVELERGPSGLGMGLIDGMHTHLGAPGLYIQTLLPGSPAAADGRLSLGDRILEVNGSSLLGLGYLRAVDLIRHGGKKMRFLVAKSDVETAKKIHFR

Assay [17] deals with T9, APBA2_2, Q99767.
T9 sequence (Q99767 654-744, limits assumed, looked up): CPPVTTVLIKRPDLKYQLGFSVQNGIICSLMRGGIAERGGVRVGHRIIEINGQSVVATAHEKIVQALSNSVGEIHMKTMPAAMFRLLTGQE

The target in assay [18] is T10, SNTG1, Q9NSN8.
T10 sequence (Q9NSN8 52-150, limits assumed, looked up): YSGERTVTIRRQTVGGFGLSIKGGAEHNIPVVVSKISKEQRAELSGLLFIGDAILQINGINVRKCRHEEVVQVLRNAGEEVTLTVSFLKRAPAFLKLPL

The target in assay [19] is T11, DVL3, Q92997.
T11 sequence (Q92997 244-331, limits assumed, looked up): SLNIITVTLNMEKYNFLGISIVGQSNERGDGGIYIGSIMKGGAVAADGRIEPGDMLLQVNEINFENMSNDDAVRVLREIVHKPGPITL

Assay [20] deals with T12, HTRA4, P83105.
T12 sequence (P83105 378-476, limits assumed, looked up): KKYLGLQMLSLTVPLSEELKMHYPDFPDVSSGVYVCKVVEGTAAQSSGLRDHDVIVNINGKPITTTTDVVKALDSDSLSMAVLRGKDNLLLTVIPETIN

The target of assay [21] is T13, PDZD2_2, O15018.
T13 sequence (O15018 329-429, limits assumed, looked up): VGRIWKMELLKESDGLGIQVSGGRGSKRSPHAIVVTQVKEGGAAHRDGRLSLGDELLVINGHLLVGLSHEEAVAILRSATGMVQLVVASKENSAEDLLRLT

Assay [22] addresses T14, ARHGAP21, Q5T5U3.
T14 sequence (Q5T5U3 45-169, limits assumed, looked up): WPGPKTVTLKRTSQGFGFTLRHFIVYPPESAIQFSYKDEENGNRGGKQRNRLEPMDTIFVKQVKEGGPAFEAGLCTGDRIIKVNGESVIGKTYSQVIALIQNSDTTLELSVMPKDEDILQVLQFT

Sequence of Inadl_3, Q8NI35 (Q8NI35 359-469): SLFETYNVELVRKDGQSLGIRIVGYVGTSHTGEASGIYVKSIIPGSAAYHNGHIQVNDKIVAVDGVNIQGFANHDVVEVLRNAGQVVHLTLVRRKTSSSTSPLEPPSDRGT
Sequence of FRMPD2_3, Q68DX3 (Q68DX3 1073-1166): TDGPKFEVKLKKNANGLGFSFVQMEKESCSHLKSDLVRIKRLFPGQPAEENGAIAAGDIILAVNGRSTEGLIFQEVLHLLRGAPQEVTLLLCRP
Sequence of LIMK2, P53671 (P53671 143-248): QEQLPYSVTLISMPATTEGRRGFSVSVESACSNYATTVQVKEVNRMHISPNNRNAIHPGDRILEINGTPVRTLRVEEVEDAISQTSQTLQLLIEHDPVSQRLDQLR
Sequence of PDLIM1, O00151 (O00151 1-87): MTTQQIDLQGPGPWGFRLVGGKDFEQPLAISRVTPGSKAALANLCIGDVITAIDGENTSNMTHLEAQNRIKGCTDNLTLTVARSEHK
Sequence of TJP1_3, Q07157 (Q07157 416-512): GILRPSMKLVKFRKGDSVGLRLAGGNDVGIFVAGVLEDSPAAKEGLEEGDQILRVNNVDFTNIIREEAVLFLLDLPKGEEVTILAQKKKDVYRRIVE
Sequence of DLG4_2, P78352 (P78352 155-259): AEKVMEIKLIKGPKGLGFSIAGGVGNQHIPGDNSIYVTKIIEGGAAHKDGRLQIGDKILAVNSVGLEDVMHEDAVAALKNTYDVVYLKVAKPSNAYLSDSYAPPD
Sequence of Inadl_5, Q8NI35 (Q8NI35 673-780): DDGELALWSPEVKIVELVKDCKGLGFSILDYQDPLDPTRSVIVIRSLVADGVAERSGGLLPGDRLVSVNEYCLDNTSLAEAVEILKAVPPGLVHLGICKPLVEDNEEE
Sequence of DLG1_2, Q12959 (Q12959 314-412): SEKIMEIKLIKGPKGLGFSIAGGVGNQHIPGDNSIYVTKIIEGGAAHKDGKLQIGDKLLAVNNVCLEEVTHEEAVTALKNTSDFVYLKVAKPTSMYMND

B1: SLCO2B1, O94956 (peptide)
chain: PGKKPEDSRV
In the case of B1, the pKd result is “below the threshold” in [1]; “below the threshold” in assay [2]; “below the threshold” in assay [3]; 3.91 in assay [4]; 3.78 in assay [5]; 3.94 in [6]. The negative logarithm of the Kd (pKd) result in assay [7] is “below the threshold”; in assay [8] it was “below the threshold”; in [9], 3.66; in assay [10] it was “below the threshold”; in assay [11] it was “below the threshold”; in [12], “below the threshold”. Further, the pKd entry in assay [13], in assay [14], in assay [15], in [16], in assay [17] and in [18] was “below the threshold” each time. For the same molecule, the negative-log Kd (pKd) result in [19] was “below the threshold”; in assay [20], “below the threshold”; in [21] it was 4.45; in [22], 3.84.

B2: NEB, P20929 (peptide)
chain: MLPANYVEAI
Regarding B2, the pKd in [1] is 4.11; in [2], “below the threshold”; in [3], “below the threshold”; in [4], “below the threshold”; in [5], “below the threshold”; in [6], “below the threshold”. Also, the negative-log Kd (pKd) result in [7] is “below the threshold”; in assay [8], “below the threshold”; in assay [9] it was “below the threshold”; in assay [10] it was “below the threshold”; in [11], 3.96; in assay [12], “below the threshold”. The pKd result is “below the threshold” in assay [13]; “below the threshold” in assay [14]; “below the threshold” in assay [15]; 3.65 in [16]; “below the threshold” in [17]; “below the threshold” in assay [18]. The negative-log Kd (pKd) result in [19] was “below the threshold”; in assay [20], 3.67; in assay [21], “below the threshold”; in assay [22], “below the threshold”.

B3: GJC1, P36383 (peptide)
chain: SGDGKTSVWI
On to B3, for which the pKd was 4.16 in [1]; “below the threshold” in [2]; “below the threshold” in assay [3]; 3.51 in assay [4]; “below the threshold” in assay [5]; “below the threshold” in assay [6]. The negative-log Kd (pKd) entry in [7] was “below the threshold”; in [8], 3.55; in [9], 3.75; in assay [10] it was 3.69; in assay [11] it was 4.21; in assay [12] it was “below the threshold”. Also, the pKd entry in assay [13] was “below the threshold”; in [14], 4.11; in assay [15], “below the threshold”; in [16], 4.13; in [17], “below the threshold”; in assay [18], 3.61. The pKd in assay [19] is 4.23; in [20], 4.64; in assay [21], 5.57; in assay [22], 3.58.

B4: SLC2A3, P11169 (peptide)
chain: EPAKETTTNV
Regarding B4, the pKd in assay [1] was 4.15; in assay [2], “below the threshold”; in assay [3], “below the threshold”; in [4], 4.21; in [5], 4.42; in [6], 4.57. Also, the pKd in assay [7] is 3.81; in [8] it was “below the threshold”; in [9], 3.79; in [10], “below the threshold”; in assay [11], “below the threshold”; in assay [12] it was “below the threshold”. Also, the negative-log Kd (pKd) result in [13] was “below the threshold”; in [14] it was “below the threshold”; in assay [15], “below the threshold”; in [16] it was 3.62; in assay [17], “below the threshold”; in [18], 4.06. For the same molecule, the negative-log Kd (pKd) entry is “below the threshold” in [19], “below the threshold” in assay [20], 4.97 in [21] and 4.06 in assay [22].

B5: LRRC4, Q9HBW1 (peptide)
chain: TKDKVQETQI
As to B5, the pKd was 4.57 in [1]; “below the threshold” in assay [2]; “below the threshold” in [3]; 4.76 in [4]; 5.03 in assay [5]; 5.08 in assay [6]. Besides, the negative logarithm of the Kd (pKd) in assay [7] was 3.89; in assay [8], “below the threshold”; in [9], 5.21; in assay [10], 3.56; in assay [11] it was “below the threshold”; in assay [12], “below the threshold”. In addition, the pKd result in assay [13] is “below the threshold”; in [14], “below the threshold”; in [15], “below the threshold”; in [16], “below the threshold”; in assay [17], “below the threshold”; in assay [18], 4.97. Further, the pKd entry is “below the threshold” in [19], “below the threshold” in assay [20], 4.23 in assay [21] and 4.05 in assay [22].
